{
  "source": "patent US5985616",
  "about": "“Chimeric mammalian NPY Y5 receptors” (Schering Corporation, dated 1999)",
  "binders": {"B1": {"name": "[125I] porcine peptide YY (ligand)", "peptide": "not shown", "modifications": "125I label"}, "B2": {"name": "Human PP (ligand)", "peptide": "APLEPVYPGDNATPEQMAQYAADLRRYINMLTRPRY"}, "B3": {"name": "Rat PP (ligand)", "peptide": "APLEPMYPGDYATHEQRAQYETQLRRYINTLTRPRY"}},
  "key": {"[1]": {"molecular_target": "T1, human NPY Y5 receptor (human, UniProt Q15761)", "experiment": "radioligand binding at 100 pM [125I]PYY, membranes of COS1 cells transiently expressing the construct", "experimental": "(§1) PYY and 2.5–5 ug of membrane protein (50 ul final volume). […] PYY and various concentrations of competing peptides (200 ul final volume). […] Binding assays were incubated at room temperature for 90 minutes and were terminated by rapid vacuum filtration through glass fiber filters in 96-well format (Multiscreen FB Filter Plates, Millipore, Bedford, Mass. or Unifilter-96 GF/C, Packard, Meriden, Conn.) Prior to filtration the glass fiber filters were pretreated with 100 ul of 0.3 % polyethylenimine. Each filter was then washed 3 times with 100 ul of PBS. Radioactivity trapped on the filters was then counted by standard gamma counting techniques.\n(§2) All receptors were expressed transiently in COS1 cells."}, "[2]": {"molecular_target": "rat NPY Y5 receptor expressed from pCR3.1-rY5A (rat, UniProt Q63634)", "experiment": "radioligand binding at 100 pM [125I]PYY, membranes of COS1 cells transiently expressing the construct", "experimental": "as §1, §2"}, "[3]": {"molecular_target": "T2, rat/human hybrid NPY Y5 receptor (rat/human chimera)", "T2 chain": "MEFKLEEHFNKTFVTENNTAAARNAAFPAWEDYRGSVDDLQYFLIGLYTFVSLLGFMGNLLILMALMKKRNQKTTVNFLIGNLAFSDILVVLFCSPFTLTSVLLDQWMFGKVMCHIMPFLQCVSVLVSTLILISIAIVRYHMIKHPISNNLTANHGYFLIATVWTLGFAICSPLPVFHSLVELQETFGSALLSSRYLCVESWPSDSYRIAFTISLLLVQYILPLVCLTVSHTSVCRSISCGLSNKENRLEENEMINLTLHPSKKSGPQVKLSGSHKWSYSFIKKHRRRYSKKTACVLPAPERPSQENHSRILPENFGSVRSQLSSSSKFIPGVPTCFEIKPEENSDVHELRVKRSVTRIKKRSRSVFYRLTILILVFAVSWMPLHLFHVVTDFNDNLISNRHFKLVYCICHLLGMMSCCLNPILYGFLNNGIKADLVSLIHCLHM", "experiment": "radioligand binding at 100 pM [125I]PYY, membranes of COS1 cells transiently expressing the construct", "experimental": "as §1, §2"}, "[4]": {"molecular_target": "T2, rat/human hybrid NPY Y5 receptor", "experiment": "competition with 0.1 nM [125I]PYY, membranes of COS1 cells transiently expressing the receptor", "experimental": "as §1\n(§3) Peptide affinities were measured in competition binding assays with membranes from COS1 cells transiently expressing the human Y_5 and rat/human hybrid Y_5 receptors."}, "[5]": {"molecular_target": "T1, human NPY Y5 receptor", "experiment": "competition with 0.1 nM [125I]PYY, membranes of COS1 cells transiently expressing the receptor", "experimental": "as §1, §3"}},
  "data": [
    {"binder": "B1", "values": [
      {"measurement": "Level of Expression (fmol/mg protein), radioligand bound at 100 pM", "setting": "[1]", "value": 103, "unit": "fmol/mg protein"},
      {"measurement": "Level of Expression (fmol/mg protein), radioligand bound at 100 pM", "setting": "[2]", "value": 100, "unit": "fmol/mg protein"},
      {"measurement": "Level of Expression (fmol/mg protein), radioligand bound at 100 pM", "setting": "[3]", "value": 298, "unit": "fmol/mg protein"}
    ]},
    {"binder": "B2", "values": [
      {"measurement": "Ki", "setting": "[4]", "value": 2.86, "unit": "nM"}
    ]},
    {"binder": "B3", "values": [
      {"measurement": "Ki", "setting": "[5]", "value": 60, "unit": "nM"},
      {"measurement": "Ki", "setting": "[4]", "value": 75.6, "unit": "nM"}
    ]}
  ]
}
